Columns and labels:
[1] = molecular target: T1, human TSLP receptor (TSLP-R) (human, UniProt Q9HC73 23-371); assay: cell-based or functional assay
T1 sequence (looked up): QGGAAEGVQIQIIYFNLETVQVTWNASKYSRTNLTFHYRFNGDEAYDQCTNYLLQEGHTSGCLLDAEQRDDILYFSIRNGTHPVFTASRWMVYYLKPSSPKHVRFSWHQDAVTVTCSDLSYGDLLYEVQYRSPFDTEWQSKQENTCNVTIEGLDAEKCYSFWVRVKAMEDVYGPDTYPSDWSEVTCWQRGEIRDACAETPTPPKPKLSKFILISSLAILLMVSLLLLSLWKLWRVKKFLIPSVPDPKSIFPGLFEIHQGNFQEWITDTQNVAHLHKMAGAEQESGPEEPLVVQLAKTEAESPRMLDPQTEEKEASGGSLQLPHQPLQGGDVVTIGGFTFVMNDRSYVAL

[2] = molecular target: T1, human TSLP receptor (TSLP-R); assay: cell-based or functional assay; remark: listed apart in the source

B1: TRAB-1 antibody (anti-TSLP-R antibody) (antibody, human IgG1, kappa, V domains shown)
VH: EVQLLESGGGLVQPGGSLRLSCAASGFTFRSSAMHWVRQAPGKGLKWVSSVSGSGAGTYYADSVKGRFTISRDNPKNTLYLQMNSLRAEDTAVYYCVKEGGSRGFDYWGQGTLVTVSS
VL: DIQMTQSPSSLSASVGDRVTITCRASQDISNYLAWFQQKPGKAPKSLIYTASSLQSGVPSKFSGSGSGTDFTLTISSLQPEDFATYYCQQYNLYPPTFGQGTKVEIKR
[1]
  IC50 (ng/mL), CCL17 production in dendritic cells: 16.1 ng/mL
[2]
  IC50 (ng/mL), cell proliferation of Ba/F3 cells transfected with human TSLP-R/IL-7Rα: 90.7 ng/mL

Source: US20250064929A1 (UPSTREAM BIO, published 2025)
